Reference: patent US20220256794A1, “TERPENE SYNTHASES AND TRANSPORTERS” (The State of Israel, Ministry of Agriculture & Rural …, priority 2019, published 2022)

Legend:
tobacco BY-2 cells [1] = test: CBD-induced cell death of tobacco BY-2 cells (FDA fluorescence); format: cell-based; conditions: 0.5 mM CBD
Excerpt: (§1) For tobacco, the ABC and PTR Transporter genes were cloned into a plant binary expression vector (pGreen 0029) via Agrobacterium mediated transformation as previously described [Cohen, S. et at, Nat. Commun. (2014) 5:4026]. These genes were cloned between the cauliflower mosaic virus (CaMl,) 35S promoter and the polyadenylation signal from the nopaline synthase gene and inserted into tobacco BY2 cells and plants (var. Samson) via stable transformation..
The toxic effect and cell death activity of terpenes and cannabinoids in tobacco was assessed on cell cultures as follows: 7-day-old suspension cultured BY-2 tobacco cells at a 5-fold dilution in logarithmic growth phase, incubated in Gamborg B5 medium, was incubated in the presence of 0.5 mM CBD for 48 hours as previously described [Sirikantaramas S. et al., Plant Cell Physiol. (2005) 46:1578-1582].
Cell death in the samples was evaluated using the cell viability indicator fluorescein diacetate (FDA, Sigma-Aldrich). Cell suspension (2.5 mL) was stained with 50 μL of 0.5% fluorescein diacetate (FDA) dissolved in acetone for 10 min. The cells were rinsed three times with I mL isotonic medium to remove excess staining solution. Viability was assessed immediately using an Olympus BX50 fluorescence microscope equipped with a suitable barrier filter (excitation 460-490 nm and emission 510 nm). FDA staining of viable cells results in bright green fluorescence, while nonviable cells remain colorless.

yeast cells [2] = test: Yeast growth (turbidity A600) in the presence of CBD; format: cell-based, Saccharomyces cerevisiae (strain Y1HGold); conditions: 0.5 mM CBD; for inhibition of yeast growth in response to CBD, transporter-expressing yeast vs control yeast: 7-12 hours
Method: (§2) The genes were expressed in yeast and tobacco. For yeast, the ABC and PTR Transporter genes were synthesized by the TWIST Co, cloned and expressed (individually) in the yeast expression vector pESC-URA (Agilent Technologies) for expression under the yeast native gal-10 promoter. Competent Saccharomyces cerevisiae (strain Y1HGold, CloneTech) cells were prepared, transformed by each of the resulting vector and selected on yeast synthetic media lacking Uracil as previously described [GietzR. D., Methods Mol. Biol. (2014) 1205:1-12].
An alternative method is to measure the yeast growth as a function of turbidity. Transformed yeast cells were grown on URA-glucose broth at 30° C. at 200 RPM, and after 24 hours 100 μl was used to inoculate 5 ml of URA-galactose broth in the same conditions till O.D.600 of 1.5. The yeast was further diluted to OD600=0.05 with 10 ml URA-galactose, and divided into two 5 ml aliquots into separate 50 ml falcon tubes. The first falcon (control) was added 78 μl acetonitrile (the solvent that the CBD was dissolved in), and the second one was added 78 μl CBD solution in acetonitrile (final CBD concentration=0.5 mM). […]

tobacco BY-2 cells [3] = test: Uptake of CBD into tobacco BY-2 cells; format: cell-based; conditions: 0.5 mM CBD
Excerpt: as §1
[…] The pellet was weighed and underwent HPLC analysis to determine the pellet CBD content, as indicated above.

yeast cells [4] = test: Uptake of CBD into yeast cells; format: cell-based, Saccharomyces cerevisiae (strain Y1HGold); conditions: 0.5 mM CBD; for net uptake of CBD into yeast cells compared to control (empty vector) yeast: three hour incubation, FIG. 3A and FIG. 4
Method: as §2
An additional strategy for determining transporter function is to measure the amount of exogenous CBD taken up and incorporated into the cells.
Transformed yeast cells were grown on URA-glucose broth at 30° C. at 200 RPM, and after 24 hours 100 μl was used to inoculate 5 ml of URA-galactose broth in the same conditions till OD600 of […]. The yeast was incubated with 0.5 mM CBD for 2-8 hours in 30° C. at 100 RPM, then centrifuged at 15000 g for 1 minute, and washed twice with 1 ml distilled water. The pellet was weighed and underwent HPLC analysis to determine the pellet's CBD content. The pellet was extracted in 1 ml methanol, and following centrifugation and filter was analyzed by HPLC using a diode-array detector and CBD was quantified against a commercial standard.

C=C(C)[C@@H]1CCC(C)=C[C@H]1c1c(O)cc(CCCCC)cc1O [CBD, Cannabidiol, reference compound]
fluorescence (FDA viability) of control BY2 cells in the presence of CBD (tobacco BY-2 cells [1]; control BY2 cells, FIG. 6A top): small decrease | growth with CBD as % of growth without CBD (yeast cells [2]; control (empty vector) yeast, 7-12 hours after initiation, FIG. 2): 42%

B1: T-790-1: Cannabis ABC-B transporter gene product, amino acid SEQ ID NO: 46 (protein)
chain: MDNKTNKHRGGNGDGDDNEDQDQEDTKKNNNNNNSNKVSLLKLFSFADFYDYVLMGIGTIGAIIHGASVPIFFIFFGKLINVIGMAYLFPKEASHKVAKYSLDFVYLSIAILFSSWTEVACWMHTGERQAAKMRMAYLRAMLSQDISLFDTEASTGEVISAITSDIIVVQDALSEKVGNFLHYISRFVVGFIVGFARVWQISLVTLSIVPLIALAGGVYAYIATGLIARVRKSYVKAGEIAEEVIGNVRTVQAFAGEEKAVKMYTSALAHTYMYGRKAGLAKGLGLGFMHCTLFLSWSLLVWYVSIVVHKSIANGGESFTTMLNVVIAGLSLGQAALDISAFVRAKAAAYPIFAMIERNTASKSSAMSGRKLGKLEGHIQFNNVTFSYPSRPDVTIFNKLSLDIPSGKIVALVGGSGSGKSTVISLIERFYEPLSGEILLDGNNIKELDLKWMRQQIGLVNQEPALFATSIRENILYGKDEASLDEITRAAKLSEAISFINNLPERFETQVGERGIQLSGGQKQRIAISRAIVKNPSILLLDEATSALDAESEKSVQEALDRVMVGRTTVVVAHRLSTIRNADIIAVVQEGKIVETGCHDELISNPNSVYSSLVQLQEAAPLQRNSSLGRPPSIKFSRELSRTTTSFGASFRSDKDSISRVGADGGAVEPVKTTNVSAKRLYSMIGPDWLYGLCGTICAFIAGAQMPLFALGISHALVSYYMDWDTTKHEVKKISILFCCGAVVTVIVHGIEHLCFGTMGERLTLRVRERMFSAMLRNEIAWFDDTNNTSSMLSSRLESDATLLRTIVVDRSTILLQNVGLVVASFIIAFLLNWRITLVVLATYPLVISGHISEKLFMQGYGGNLSKAYLKANMLAGEAVSNIRTVAAFCAEQKVLDLYARELVEPSKRSFTRGQIAGIFYGISQFFIFSSYGLALWYGSVLMGKELSSFKSVMKSFMVLIVTALAMGETLALAPDLLKGNQMVASVFEVLDRKTEVSGDSGEELASVDGTIELRDIHFSYPSRPDVVIFKDFNLKVRSGKSMALVGQSGSGKSSVISIILRFYDPTSGKVLIDGKDMKKLKLKSLRKHIGLVQQEPALFATSIYENILYGKEGASESEVIEAAKLANAHSFISALPEGYSTKVGERGVQLSGGQRQRVAIARAVLKNPEILLLDEATSALDVESERVVQQALDRLMKNRTTIMVAHRLSTIKNADQISVIQDGKIIEQGTHSTLIDNTNGPYYKLINIQQQQQQQL
modifications: ABC+PTR Transporter amino acid sequence (of the 12 identified gene products)
effect on the uptake of CBD in tobacco BY-2 cells (tobacco BY-2 cells [3]; 5 hour uptake, FIG. 7): strong effect | inhibition of yeast growth in response to CBD, transporter-expressing yeast vs control yeast (yeast cells [2]; FIG. 2): reduced inhibition of growth | net uptake of CBD into yeast cells compared to control (empty vector) yeast (yeast cells [4]): reduced net uptake of CBD

B2: T-792-1: Cannabis ABC-G transporter gene product, amino acid SEQ ID NO: 47 (protein)
chain: MASVTPSTTIDQEHYHNKKVTISRTTSTTSSNNNTNHGNPRITVVEIETANNRNASYRSSIFGADHEVSLPVVEDHQGVFLTWQDLWVTVSSGKNSNRPILRGLTGYAKPGELLAIMGPSGCGKSTLLDALAGRLNANTRQSGDILINGNKQTLAYGTSAYVTQEDTLLTTLTVREAVHYSAQLQLPDSMSSAEKKERAEMTIREMGLTDAVNTRIGGSGLGTGSKGLSGGQKRRVSICIEILTRPKLLFLDEPTSGLDSAASYYVMSSIASLDIQSRRGGGAGGRRTVVASIHQPSSEVFQLFNTLCLLSAGKIVYFGPASAANEFFTMSGFPCPSLQNPSDHFLKTINKDFDKVQKDLEQGLPIRGRPTVEEAIETLVKSYKASENCQLVQQQVSQICNKKNKSVGLMEKKRSHAGFISQCGVLTRRSFKNMYRDLGYYWFRLVIYIGLAIGLGTIFCNIGHSDGSVEARASLIMYVASFLTFMTIGGFPSFVEDMKVFGRERLNGHYSVTSFVMGNTISAQPYLVLIALIPGALAYFPPGLRGGFEHFIYFVLVLYACMMLVESLMMIVAALVPNFLLGIITGAGIQGFMMLAGGFFRLPNDLPDPFWRYPVFYISFHRYAFQGLYKNEFKGLMFVDEILGKSHKISGDEILRNKYQVNMSYSKWVDFVLLLSMVFAYRVMFLLILKISENYKTISAAFAFGRRKPSTQVMENPTATPPHA
modifications: ABC+PTR Transporter amino acid sequence (of the 12 identified gene products)
inhibition of yeast growth in response to CBD, transporter-expressing yeast vs control yeast (yeast cells [2]; FIG. 2): reduced inhibition of growth | CBD levels in yeast cells compared to the control (yeast cells [4]; 5 hour period, FIG. 3B): increase in CBD levels

B3: T-AG0100-1: Cannabis PTR/NRT transporter gene product, amino acid SEQ ID NO: 53 (protein)
chain: MNMEVMSRDFDQSGGGKRGGNRAAFFVYIMEGLESMAFISNSASLVIYFFSYMNYSLTKSSTMLTNLLGTATLLSLLGGFISDTYLTRFATTLIFASIELMGYIVLLVQAHRSDLRPPKCLSITHQCEGASAGEAAILYTGLYLMALGTGGVKAALPALGADQFDPKKAKQLSTYFNWFIFSLTIGSILGVTLVVWISTDKGWDWAFAVCAIALLLSIFFISLGNPFYRNNLPKGSPLLRFLRVFVASFRNRKLPIPENADELHEIYQDKEDDNLHHEILQRTDQFKFLDRAAVIRRTEDDDNDGSNSGSEWRVCTVTEVEETKILIRMLPIILTTIFMNTCLAQLQTFSVQQSVTMDRDFIGFEIPGPSVPAIPLLFMFILIPLYDRVFVPIARRVTGIPTGISHLQRIGIGLVLSAISMTVAGFVEKKRRNVAIQHDMVDSQDALPISVFWLGYQYAIFGAADMFTLVGMLEFFYAESSAGMKALSTAISWCSLAFGYYLSSVVVEIVNKVSGGWLANNNLNRDKLENFYWLLAGLSVVNFGVYVMCASWYKYKNVEMIKKDDAST
modifications: ABC+PTR Transporter amino acid sequence (of the 12 identified gene products)
fluorescence (FDA viability) of transporter-expressing BY2 cells in the presence of CBD (tobacco BY-2 cells [1]; FIG. 6A bottom): strong decrease | cell death in response to CBD of BY-2 cells expressing the transporter (tobacco BY-2 cells [1]; FIGS. 6A-B): increased cell death | effect on the uptake of CBD in tobacco BY-2 cells (tobacco BY-2 cells [3]; 4 hour uptake, FIG. 5): strong effect | inhibition of yeast growth in response to CBD, transporter-expressing yeast vs control yeast (yeast cells [2]; FIG. 2): reduced inhibition of growth | growth inhibition by CBD, time course of yeast growth vs empty vector yeast (yeast cells [2]; 12 hour period, FIGS. 1A-B): reduced growth inhibition | net uptake of CBD into yeast cells compared to control (empty vector) yeast (yeast cells [4]): reduced net uptake of CBD
